# US20240254227A1 (Alector, published 2024)
# T1: murine CD300LB-Fc (mouse)
# T1 construct: mouse IgG2a-Fc fusion (R&D Systems); the entry is the whole fusion chain; also called mCD300LB; Mouse CD300LB-Fc
# T1 chain: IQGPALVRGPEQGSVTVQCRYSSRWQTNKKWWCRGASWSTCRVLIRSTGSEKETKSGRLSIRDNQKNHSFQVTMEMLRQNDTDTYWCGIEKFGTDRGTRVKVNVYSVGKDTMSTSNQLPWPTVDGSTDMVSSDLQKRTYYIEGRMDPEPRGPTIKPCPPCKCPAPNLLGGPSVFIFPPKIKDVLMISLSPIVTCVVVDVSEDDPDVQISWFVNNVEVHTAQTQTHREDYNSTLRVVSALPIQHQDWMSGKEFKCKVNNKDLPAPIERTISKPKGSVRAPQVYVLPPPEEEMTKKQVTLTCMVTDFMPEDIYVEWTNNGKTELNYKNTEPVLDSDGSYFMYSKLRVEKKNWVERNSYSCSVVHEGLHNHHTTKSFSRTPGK
# T2: murine CD300E-Fc (mouse)
# T2 construct: mouse IgG2a-Fc fusion (R&D Systems); the entry is the whole fusion chain; also called mCD300E; Mouse CD300E-Fc
# T2 chain: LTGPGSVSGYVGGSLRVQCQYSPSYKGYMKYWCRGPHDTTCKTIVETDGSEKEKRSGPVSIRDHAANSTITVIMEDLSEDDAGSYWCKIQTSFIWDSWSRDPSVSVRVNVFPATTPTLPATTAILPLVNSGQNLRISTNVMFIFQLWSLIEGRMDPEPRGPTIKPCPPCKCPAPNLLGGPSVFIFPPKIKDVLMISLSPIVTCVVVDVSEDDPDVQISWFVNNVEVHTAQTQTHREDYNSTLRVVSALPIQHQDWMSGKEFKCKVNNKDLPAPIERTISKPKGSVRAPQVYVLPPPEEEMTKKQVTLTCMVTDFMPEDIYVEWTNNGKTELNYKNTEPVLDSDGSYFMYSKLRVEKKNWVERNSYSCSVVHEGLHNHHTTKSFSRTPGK
# T3: murine CD300C-Fc (mouse)
# T3 construct: mouse IgG2a-Fc fusion (R&D Systems); the entry is the whole fusion chain; also called mCD300C; Mouse CD300C-Fc
# T3 chain: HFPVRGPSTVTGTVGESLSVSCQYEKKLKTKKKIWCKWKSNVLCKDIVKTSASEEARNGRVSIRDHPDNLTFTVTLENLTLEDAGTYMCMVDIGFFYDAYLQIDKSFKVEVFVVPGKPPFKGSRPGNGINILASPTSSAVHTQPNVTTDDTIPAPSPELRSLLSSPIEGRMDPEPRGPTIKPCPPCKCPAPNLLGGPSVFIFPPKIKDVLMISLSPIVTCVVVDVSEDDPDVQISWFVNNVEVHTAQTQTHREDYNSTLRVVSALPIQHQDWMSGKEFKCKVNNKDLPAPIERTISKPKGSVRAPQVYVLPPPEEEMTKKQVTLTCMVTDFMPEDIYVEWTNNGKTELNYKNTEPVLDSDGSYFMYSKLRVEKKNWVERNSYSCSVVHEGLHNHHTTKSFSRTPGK
# Columns and labels:
# Assay in all cases: SPR (Carterra LSA), antibody immobilised, Fc fusion at 300 or 600 nM
# [1] = target: T1, murine CD300LB-Fc
# Description: (§1) Binding of mouse anti-CD300LB IgG1 antibodies of the present disclosure to human and murine CD300 orthologs were evaluated by surface plasmon resonance (SPR) using a Carterra LSA instrument (Carterra, Salt Lake City, UT). […] A HC200M sensor chip (Carterra) was activated using the single channel flow cell with a 7-minute injection of a 1:1:1 mixture of 100 mM MES pH 5.5, 100 mM sulfo-NHS, 400 mM EDC (all reconstituted in MES pH 5.5; 100 μL of each mixed in vial immediately before running assay). After switching to the multi-channel array flow cell, the antibodies were injected over the activated chip in a 96-spot array for 10 minutes. The remaining unconjugated active groups on the chip were then blocked by injecting 1M Ethanolamine pH 8.5 (Carterra) for 7 minutes using the single channel flow cell. After priming with running buffer (HBS-TE, Carterra) with 0.5 mg/ml BSA (Sigma), the immobilized anti-CD300LB antibodies were tested for their ability to bind human and mouse recombinant CD300LB extracellular domains. Human CD300 family members and mouse CD300A were hIgG1-Fc fusions, while mouse CD300LB, mouse CD300C, mouse CD300D, and mouse CD300E were mouse IgG2a-Fc fusions (R&D Systems). Binding was assessed by injecting each analyte over the entire antibody array using the single channel flow cell. CD300 analytes were diluted to 300 nM or 600 nM in running buffer and injected in series without regeneration. Two or three buffer blanks were run between each mouse or human ortholog, respectively. Data were processed and analyzed using NextGenKIT high-throughput kinetics analysis software (Carterra).
# (§2) Results of anti-CD300LB antibody binding to murine CD300 family members is provided below in Table 8.
# [2] = target: T2, murine CD300E-Fc
# Description: as §1, §2
# [3] = target: T3, murine CD300C-Fc
# Description: as §1, §2
SPR binding (control subtracted) [1],SPR binding (control subtracted) [2],SPR binding (control subtracted) [3],Binder
328,-0.1,1.5,"anti-CD300LB antibody CD-18 (antibody, V domains shown) VH: DVQLQESGPDLVKPSQSLSLTCTVTGYSITSGYSWHWIRQFPDNKLEWMGYILSRGDTNFNPSLKSRISITRSTSNNQFFLHFNSVTTEDTATYYCARDFFDYWGQGTTLTVSS VL: DVLMTQTPLSLPVSLGDQASISCRSSQSIVHSNGNTYLEWYLQKPGQSPKLLIYKVSDRFSGVPDRFSGSGSGTDFTLKISRVEAEDLGVYFCFQGSHVPYTFGGGTKLEIK"
310,8.6,34.5,"anti-CD300LB antibody CD-16 (antibody, V domains shown) VH: QIQLVQSGPELKKPGETVKISCKASGYTFTDYSMHWVKQAPGKGLKWMAWINTETGEPTYADDFRGRFAFSLETSGRTAYLEINNLRNEDTATYFCVTYGSSYGMAYWGQGTSVTVSS VL: DIVLTQSPASLAVSLGQRATISCRASKSVSRSGYSYLHWYQQKPGQPPKLLIYLASKLESGVPARFSGSGSGTDFTLNIHPVEAEDAATYYCQHNREIPPTFGGGTKLEIK"
11.3,-0.7,1.5,"anti-CD300LB antibody CD-17 (antibody, V domains shown) VH: QIQLVQSGPELKKPGETVKISCKASGYTLTDYSMHWVKQAPGKGLKWMGWINTETGEPRYGDDFKGRFAFSLETSASSAYLQINNLKNDDTATYFCATYGRSYGMDFWGQGTSVTVSS VL: DIVLTQSPASLAVSLGQRATISCRASKSVSPSGHSYMHWYQQKPGQPPKLLIYLASNLKSGVPARFSGSGSGTDFTLNIHPVEEGDAATYYCQHNRELPPTFGGGSKLEIK"
